B1: TPR t1 (parent)
chain: GACCAAUCUGCCCUCAGAGCUCGAGAACAUCUUCGGAUGCAGAGGAGGCAGGCUUCGGUGGCGCGAUAGCGCCAACGUCCUCAACCUCCAAUGCAUCCCACCACAUGAUGAUGCCUGAAGAGCCUUGGUUUUUUG

Variants of: B1
Experiment: polymerase ribozyme fitness, log enrichment relative to wild type (log ratio); higher = more active; in vitro selection for triplet polymerase activity
In short: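 In triplicate, a single round of in vitro selection was run on each mutant library, PCR-built and transcribed, covering one subunit of a heterodimeric triplet polymerase ribozyme. Frozen incubation at −7 °C followed annealing with a biotinylated primer, partner subunit and triplets, and extended constructs were then gel-excised, streptavidin-captured and taken through RT-PCR. Fitness is the logarithm of genotype enrichment over wild-type enrichment, from inverse-variance-weighted replicate averages of Illumina-sequenced inputs and outputs. […] only genotypes with ≥10 input reads and ≥1 read per output were kept.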

Variant | polymerase ribozyme fitness (log ratio)
G23C G120A | -5.95
A24G G48A | -1.73
A26G C49U C73A | -2.93
A24G G51U | -4.9
C22U U55A | -3.49
A26U A43U G45U G63C C89U G120A | -6.22
G25C U33G C34U A46U C70A | -8.69
A24U G122U | -5.4
G23A A43C A84G U87C G117U | -6.59
G25C G42U G44U C104U C124U | -7.89
A24C A91U G117U C123G | -7.92
G23U G117A | -6.33
G25A G71U | -6.24
G25U U32G C72A G110A | -6.9
A26U A46U | -4.63
A26U C34U U59C C85A G113A G127U | -6.04
G25U C64A C98G A111U | -8.01
A26G A111U | -2.41
A24G A119U C123G U125A | 0.361
A26G A46G G63A | -3.44
A26G G44U U55G C88U | -3.03
A24G U59G | -1.69
A26U C56G G69U | -2.73
A24G U54C C62G | -3.96

Variant | polymerase ribozyme fitness (log ratio)
A26G U112A U125A | -1.55
A24G U59C U87A | -2.51
A26U C53G C80U | -3.08
A24G A75U | -2.53
A26G C104U G110C C115A | -5.13
A26C G36A G61A | -5.9
G23C C64U G120U U133A | -7.42
A26G C62A C89U | -4.69
A24U C53U | -6.23
A26U C53U U116G | -6.15
A26G A84G C94A A95U | -4.63
A26G C72G A100C C115U G128A | -5.88
G25A C123A | -6.12
A24G C98U C101A | -4.13
A24G A37G G47A G120C | -1.98
A26G G61U | -1.54
A26U C49A G60A G110A | -4.81
G25A C72U C124A | -6.83
G23A C56G C76U G110A G117A C124G | -7.16
G23C C123U | -5.53
G25C C70U C73G A121G U133G | -7.65
G23A U112A | -4.45
G23U U33G C49G C53G U59G G71A U78A A84U C94G A100U | -8.02
A26U A46C C56A G120U | -4.53

Variant | polymerase ribozyme fitness (log ratio)
A26G A37U G42U C72A G120C | -2.36
A26G U54A A108G | -4.49
A24G U55G | -1.71
G25A C72U | -5.57
G25A C72A | -5.51
A26U C53G C73U A100U | -4.47
A26C A46C C115G | -6.72
G23A C28G G69U U78G C79U U112C G128U U133G | -5.41
A24G C31U G60C U96G U106A G120C | -4
A24U G52U U55C C64A C82A C86G C99A G110A A119G | -7.53
C22U U33A G36A G42A C72U U87A G113A | -6.59
A24G C73G G120A | -2.15
G23U G71C C94U C115U | -6.24
G23U C62A C99A G113U G127C | -5.56
G25U G120C | -3.76
G25U G120A | -3.94
A24G A29U G47A A74G U87A U109G | -6.31
A26U C53U A95U G113A | -6.17
G25C A111U | -6.92
A26U A74G A121G | -1.18
G23U C123A | -5.92
G25C G58A C64A A83C G110C | -6.43
A26G G48A C49G C73U A121U | -0.344
C22U U59C A100C | -3.95

Variant | polymerase ribozyme fitness (log ratio)
A24G G60A | -1.82
A24G G52A C115U | -2.59
A26G C123G C124G | 0.832
C22U U55G C123A | -4.35
A26G A37U C72G C123U U133A | -2.74
A24G A29G C56A U87G G110A U133A | -3.1
G23A U38A G58C A121C C124A | -6.22
A24G C62U U81A | -3.04
A26G A46G G60U | -3.73
A24U G47A G110A C114A | -6.75
G25C U116C | -5.31
A26G C70G G113A | -5.88
A26C C49A C123U | -4.69
A26G C49G | -2.93
A26U C56U | -3.38
A26U C56A | -4.03
A24G G71U C86G | -3.88
G25C G120A | -5.07
A26C C56G | -5.43
A26C U54G A103C A105U U112C | -6.86
A26G G63U | -3.45
G23A G63C C76U C101U A111G | -5.22
A26G C82U C124A G127C U133C G135U | -4.09
A24G A37U U96C G110U | -3.88

Variant | polymerase ribozyme fitness (log ratio)
A24G C62A A74C G120C | -4.13
A24G G71U U106A | -2.23
A26G G63U A95U C99U | -5.64
A26C C40G U87C C101U C104U | -5.71
A24U G36U U87C A90G G120U C124A U130G | -6.87
A24U C72G A95C G110U | -7.4
G25A U33A G61A G77U C115A | -6.46
G25A G47A A100G U112G C123U | -6.98
G25U G44U C56A C70U U109G | -7.02
G25A U54A G61U | -7.38
G23U A43U G60A | -7.42
G23C G93A | -6.59
A24G U78C C114U C115A | -5.31
A24G C123G | -0.893
A26C G61C U112G | -5.78
A24G A29U G45A G47C G77C U129A | -5.43
G25A A41U | -5.8
A24G G57A | -2.62
G25U A46U | -5.86
G23A G69U A90U C124U | -5.33
G25A C80A U92A U112A | -6.66
A26U A50U C124G | -2.5
G23A G60A | -4.52
A26G A41G G60C G93A | -2.97

Variant | polymerase ribozyme fitness (log ratio)
A24U G47A G52A G61A C101G C114G G122A | -7.25
G25A U106A | -4.81
G25A G71A U112C | -6.36
A26U A37C C72G G77A C124G | -2.81
A24G G57A G77U | -2.15
G25U A26G A46U | -3.61
A26C G39U C114G | -6.59
A26C C56U G61A G63U C115U U129G U131A | -4.23
A26G C62U | -1.47
A26U A46C G63A G120U | -5
G25U C56G | -5.61
G25C G48U C72G C86G A100U C102A G117U A119G | -7.7
A24G A46U C72U U126G G128C | -4.57
G23A G61A | -4.6
A26U C49U A84C C124G | -2.34
A26C G63A C82G A90G U112A | -5.15
A26U C64A C115U | -6.23
A26G G93A | -2.29
G23U C56U | -6.5
A24G U55A U130A | -1.66
G25A G44U G52U C62U A105G U112A | -7.09
A24C C102U | -6.73
A26G G110U | -2.66
A26U C34A C40U G110U | -6.16

Variant | polymerase ribozyme fitness (log ratio)
A26U A46U G61A | -3.77
A26C G36A G69U G110A | -6.98
A26G G39U G69C C76U A95G G110A | -5.41
C22U U112A | -2.83
G25C C89A | -7.16
C22U U78C | -3.42
G25U C31G U55G G71C C115A A119U G122A | -6.9
A24C C86U G110A | -5.7
G23A C72U C85U | -6.02
G25A C49U | -6.96
A26C C72U | -5.89
A26G A29C | -3.02
A24U A41C G42U C62G A83G C94G C123A G127A | -6.99
G23A C94A A111G | -5.95
A24G G69A C82A A95C G120A | -4.87
A26U C53G G60A C80U | -4.36
G25C G69U G110C | -7.38
G23C C62A C99U U112C | -6.42
A24G C64U U96G A111C | -3.27
A24U A37G A108G G110U A121C | -6.34
G23A G63C C101U A111G | -6.12
G23U G61U C86A A100U C114U G117U | -7.47
A26G C28U U87C A118U | -2.19

— the RNAGym collection of RNA variant scans (doi:10.1073/pnas.2313332121)
